Laboratory results reported in the supplement of paper PMC9732359.
± gives the uncertainty stated by the source.

Assay: protein stability index of a GFP-peptide fusion (yeast GPS) (PSI 1-4); higher = more stable; sorted into four equal gates, so the index is relative within each strain
Summary of the method: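 Plasmids in a pooled yeast library fused tiled 17-residue yeast protein peptides downstream of GFP and also expressed Cherry. Mid-log cultures grown without leucine were sorted into four equal gates by GFP/Cherry fluorescence ratio. Each gate's plasmids were PCR-amplified and Illumina-sequenced, and reads were matched to strains by barcodes. The protein stability index is derived by multiplying each gate's read frequency by its gate number and summing the results.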

Row | Sequence | protein stability index (doa10∆) | protein stability index (pdr5∆) | protein stability index (san1∆) | protein stability index (ubr1∆)
1 | DDLPYYVNALADVLYKT [QCR2] | 2.78 ± 0.061 | 2.86 ± 0.052 | 2.63 ± 0.045 | 2.63 ± 0.042
2 | DDPSKVRLLCRSDGMGN [YLR335W/NUP2] | 2.94 ± 0.26 | 3.66 ± 0.19 | 2.98 ± 0.16 | 2.96 ± 0.15
3 | DDQLKQRRQNIRDLEKL [RPT4] | 2.81 ± 0.23 | 3.11 ± 0.29 | 3.12 ± 0.13 | 3.15 ± 0.16
4 | DDSLNRLAQNDGLLKNV [RPS21A] | 2.77 ± 0.15 | 3.04 ± 0.12 | 3.16 ± 0.13 | 3.38 ± 0.18
5 | DDYEDQDDDDYVDTATA [IRR1] | 3.14 ± 0.08 | 3.47 ± 0.071 | 2.93 ± 0.093 | 3.22 ± 0.049
6 | DDYILSGESVMDRDSES [SRB4] | 3.45 ± 0.19 | 3.6 ± 0.12 | 3.34 ± 0.15 | 3.21 ± 0.13
7 | DEEASYKLGKVKKVQLG [RPS4A] | 2.96 ± 0.1 | 3.1 ± 0.069 | 2.9 ± 0.063 | 2.98 ± 0.061
8 | DEEELGQRTAYHSKRDA [RPB2] | 3.4 ± 0.1 | 2.9 ± 0.14 | 3.31 ± 0.09 | 3.04 ± 0.098
9 | DEEESNDEKQKAQDVDV [RPN13] | 3.33 ± 0.12 | 3.42 ± 0.077 | 3.34 ± 0.044 | 3.32 ± 0.049
10 | DEEIIQLHFSLLDEEAE [RPO21] | 2.86 ± 0.078 | 3.01 ± 0.09 | 2.89 ± 0.083 | 2.83 ± 0.23
11 | DEFPSELSDSDRQIINE [SIR4] | 3.53 ± 0.27 | 3.24 ± 0.16 |  | 2.89 ± 0.15
12 | DEGKEIPATIFDKVIYH [TAF14] | 3.13 ± 0.077 | 3.14 ± 0.059 | 3.15 ± 0.041 | 3.02 ± 0.056
13 | DEIHIPAPSKPVIDYEL [BRR2] | 3.19 ± 0.073 | 3.08 ± 0.077 | 2.88 ± 0.059 | 2.78 ± 0.061
14 | DEKDYLTNQQPKNLSTP [CSE2] | 3.04 ± 0.083 | 2.87 ± 0.081 | 3.21 ± 0.059 | 3.27 ± 0.069
15 | DELDQEILNLSTQELQT [RPT5] | 3.21 ± 0.084 | 3.15 ± 0.09 | 3.14 ± 0.06 | 3.13 ± 0.078
16 | DELRKQELISKAFTNWN [ISW2] | 2.04 ± 0.065 | 2.45 ± 0.078 | 2.4 ± 0.089 | 2.23 ± 0.067
17 | DENDSKKNNAASELANP [YAR002W/NUP60] | 2.97 ± 0.078 | 2.99 ± 0.052 | 3.05 ± 0.047 | 2.97 ± 0.047
18 | DENKDDELVKLLLDNGF [SRP68] | 3.05 ± 0.11 | 3.4 ± 0.086 | 3.36 ± 0.12 | 3.31 ± 0.094
19 | DEPMTTFYKCVNCGHRW [RPC11] | 2.84 ± 0.16 | 2.5 ± 0.082 | 2.17 ± 0.15 | 2.82 ± 0.086
20 | DEQQREDNNDAVNSIMA [ECM29] | 3.16 ± 0.1 | 3.56 ± 0.11 | 3.07 ± 0.1 | 3.31 ± 0.074
21 | DESLKDEATVPNTRDAE [SWI3] | 3.16 ± 0.074 | 3.31 ± 0.082 | 3.19 ± 0.13 | 3.14 ± 0.077
22 | DESNDIDMIADENGTNS [RPC37] | 2.44 ± 0.1 | 2.43 ± 0.07 | 2.88 ± 0.11 | 3.12 ± 0.1
23 | DEVTIRRTVGLKKDDYQ [SMC3] | 2.66 ± 0.12 | 2.53 ± 0.099 | 2.32 ± 0.13 | 2.35 ± 0.071
24 | DFDGDEMNLHVPQTEEA [RPO31] | 3.03 ± 0.071 | 3.31 ± 0.068 | 2.99 ± 0.063 | 3.18 ± 0.051
25 | DFDLFKEVLPDLQNLNL [YJL039C/NUP192] | 3.44 ± 0.095 | 3.17 ± 0.11 | 3.19 ± 0.07 | 3.4 ± 0.16
26 | DFIQNVGRLWDQTFPIN [ECM29] | 3.13 ± 0.062 | 3.35 ± 0.057 | 3.31 ± 0.043 | 3.31 ± 0.045

Row | Sequence | protein stability index (doa10∆) | protein stability index (pdr5∆) | protein stability index (san1∆) | protein stability index (ubr1∆)
27 | DFKPPYIYSHVNKVPQN [SWP82] | 2.16 ± 0.12 | 2.14 ± 0.11 | 2.79 ± 0.14 | 2.62 ± 0.054
28 | DFLRKATAFNKTRGPFH [RPL16A] | 2.19 ± 0.16 | 2.96 ± 0.2 | 3.04 ± 0.086 | 3.03 ± 0.12
29 | DFVRKGGLQKGKLVVSQ [SIR3] | 3.14 ± 0.079 | 3.22 ± 0.091 | 2.75 ± 0.055 | 3.35 ± 0.077
30 | DGAYALSASWDKTLRLW [ASC1] | 3.28 ± 0.064 | 3.28 ± 0.057 | 3.18 ± 0.093 | 3.26 ± 0.036
31 | DGDASKPAFSFGAKSDE [YJL041W/NSP1] | 3.32 ± 0.064 | 3.26 ± 0.053 | 3.15 ± 0.037 | 3.43 ± 0.044
32 | DGFDPRGNIKVMFATNR [RPT1] | 3.25 ± 0.17 | 3.48 ± 0.16 | 3.26 ± 0.091 | 3.24 ± 0.14
33 | DGFNKTFHDELNLKFKE [YML103C/NUP188] | 2.41 ± 0.066 | 2.38 ± 0.072 | 2.69 ± 0.087 | 2.65 ± 0.054
34 | DGKGAVYSFDPVGSYER [PRE7] | 3.31 ± 0.18 | 2.57 ± 0.12 | 2.94 ± 0.15 | 3.27 ± 0.081
35 | DGLLEYLEDIIGTANYK [SMC4] | 2.38 ± 0.072 | 2.53 ± 0.055 | 2.6 ± 0.078 | 2.36 ± 0.054
36 | DGRVNRFYELEESLTVL [YJR042W/NUP85] | 2.28 ± 0.12 | 2.21 ± 0.13 |  | 1.99 ± 0.1
37 | DGSAIEDDDIRSRMLPT [SNF5] | 3.19 ± 0.086 | 3.03 ± 0.11 | 3.46 ± 0.12 | 3.34 ± 0.057
38 | DHEFVLISLIMTTWRKL [YMR129W/POM152] | 1.3 ± 0.12 | 1.09 ± 0.075 | 1.1 ± 0.14 | 1.26 ± 0.07
39 | DHIAIDWEDEEKYEDED [DSN1] | 2.52 ± 0.15 | 2.86 ± 0.12 | 2.55 ± 0.09 | 2.12 ± 0.08
40 | DHINWEHIKQDYVASLN [NSL1] | 3.12 ± 0.069 | 3.23 ± 0.069 | 2.72 ± 0.058 | 2.9 ± 0.056
41 | DHLVSSIPMGGQSINDS [ARP9] | 2.78 ± 0.11 | 2.89 ± 0.093 | 3.08 ± 0.068 | 3.13 ± 0.1
42 | DHTVDEIDHVEYYVMMD [SRB8] | 3.01 ± 0.083 | 2.63 ± 0.062 | 2.96 ± 0.081 | 3.02 ± 0.047
43 | DHVDGSSEFVSQDTKVI [RRP46] | 2.64 ± 0.056 | 2.24 ± 0.053 | 2.44 ± 0.053 | 2.8 ± 0.053
44 | DHYESNQLVAKLLLLRI [SRB8] | 2.84 ± 0.065 | 2.74 ± 0.085 | 2.84 ± 0.1 | 2.34 ± 0.038
45 | DIDGIMDNPRKLSKILR [SNU114] | 3.01 ± 0.074 | 2.96 ± 0.084 | 2.94 ± 0.058 | 2.96 ± 0.067
46 | DIFITPTPVVTISEKEQ [SSN2] | 1.76 ± 0.079 | 1.95 ± 0.077 | 1.48 ± 0.12 | 1.67 ± 0.069
47 | DIIWLQRDLGLYVVGLF [RRP6] | 2.27 ± 0.062 | 2.22 ± 0.099 | 1.4 ± 0.1 | 2.29 ± 0.12
48 | DIKAPSTFENRNVGKTL [RPS1A] | 2.95 ± 0.074 | 2.72 ± 0.06 | 3 ± 0.052 | 3.1 ± 0.057
49 | DIKVLKRQLIKERNQKF [YIL149C/MLP2] | 2.7 ± 0.084 | 2.62 ± 0.084 | 2.5 ± 0.091 | 2.41 ± 0.039
50 | DILAKLFSLEKPNLNYF [SWI1] | 2.02 ± 0.056 | 1.96 ± 0.05 | 1.96 ± 0.063 | 2.08 ± 0.044
51 | DILSKLYLLLARVFEIW [SNF11] | 2.15 ± 0.044 | 2.36 ± 0.053 | 2.19 ± 0.07 | 2.39 ± 0.041
